Here are results for 24 sequences from the Immune Epitope Database (IEDB).

Experiment [1] deals with HLA-A*03:01. Kind of experiment: IEDB peptide-MHC binding, purified MHC/direct/fluorescence; filed as Kd, often an IC50 or EC50 that approximates it; ≥ and ≤ were set here for values at or beyond the usual limits of such assays.
Experiment [2] concerns the target HLA-A*31:01. Described as above.
Experiment [3] has as its target HLA-A*32:01. Nature of the experiment: IEDB peptide-MHC binding, purified MHC/competitive/radioactivity; filed as Kd, often an IC50 or EC50 that approximates it; ≥ and ≤ were set here for values at or beyond the usual limits of such assays. The settings on record: source organism: Vaccinia virus WR.
The target of experiment [4] is HLA-A*26:01. Nature of the experiment: IEDB peptide-MHC binding, purified MHC/direct/fluorescence; filed as Kd, often an IC50 or EC50 that approximates it; ≥ and ≤ were set here for values at or beyond the usual limits of such assays.
Experiment [5] has as its target HLA-A*69:01. Described as above.
For experiment [6], the target named is HLA-A*01:01. The experiment is described as above.
In experiment [7] the target is HLA-A*11:01. The experiment is described as above.
Experiment [8] has as its target HLA-A*02:01. Kind of experiment: IEDB peptide-MHC binding, purified MHC/competitive/fluorescence; filed as Kd, often an IC50 or EC50 that approximates it; ≥ and ≤ were set here for values at or beyond the usual limits of such assays.
The target of experiment [9] is HLA-A*33:01. Kind of experiment: IEDB peptide-MHC binding, purified MHC/competitive/radioactivity; filed as Kd, often an IC50 or EC50 that approximates it; ≥ and ≤ were set here for values at or beyond the usual limits of such assays. The conditions noted are these: source organism: SARS coronavirus Tor2.
The target of experiment [10] is HLA-A*68:01. The experiment is described as above. The conditions noted are these: source organism: SARS coronavirus Tor2.
In experiment [11] the target is HLA-B*58:01. Nature of the experiment: IEDB peptide-MHC binding, purified MHC/direct/fluorescence; filed as Kd, often an IC50 or EC50 that approximates it; ≥ and ≤ were set here for values at or beyond the usual limits of such assays. The conditions noted are these: source organism: Mycobacterium tuberculosis variant bovis BCG str. Pasteur 1173P2.
Experiment [12] addresses HLA-B*15:01. Described as above.
In experiment [13] the target is HLA-B*39:01. Kind of experiment: IEDB peptide-MHC binding, purified MHC/competitive/fluorescence; filed as Kd, often an IC50 or EC50 that approximates it; ≥ and ≤ were set here for values at or beyond the usual limits of such assays.
For experiment [14], the target named is HLA-A*24:02. Kind of experiment: IEDB peptide-MHC binding, purified MHC/competitive/radioactivity; filed as Kd, often an IC50 or EC50 that approximates it; ≥ and ≤ were set here for values at or beyond the usual limits of such assays.
For experiment [15], the target named is HLA-B*44:03. The description is as above.
The target of experiment [16] is HLA-A*23:01. The experiment is described as above.
In experiment [17] the target is HLA-B*07:02. Nature of the experiment: IEDB peptide-MHC binding, purified MHC/direct/fluorescence; filed as Kd, often an IC50 or EC50 that approximates it; ≥ and ≤ were set here for values at or beyond the usual limits of such assays. The conditions noted are these: source organism: Homo sapiens.
For experiment [18], the target named is HLA-A*02:01. The experiment is described as above. The conditions noted are these: source organism: Bacillus licheniformis.
For experiment [19], the target named is HLA-B*27:05. The experiment is described as above. The conditions noted are these: source organism: Homo sapiens.
The target in experiment [20] is HLA-A*26:01. Kind of experiment: IEDB peptide-MHC binding, purified MHC/competitive/radioactivity; filed as Kd, often an IC50 or EC50 that approximates it; ≥ and ≤ were set here for values at or beyond the usual limits of such assays.
In experiment [21] the target is HLA-A*30:02. The description is as above.
The target in experiment [22] is HLA-A*01:01. Described as above.
Experiment [23] concerns the target HLA-A*29:02. The experiment is described as above.
The mark [24] stands for this setting: source organism: Burkholderia lata.
The mark [25] stands for this setting: source organism: Mycoplasmoides genitalium.
Where [26] appears, read: source organism: Dengue virus 2 Jamaica/1409/1983.
Where [27] appears, read: source organism: Bacillus licheniformis.
Setting [28] is: source organism: Xanthobacter autotrophicus.
[29] abbreviates: source organism: Giardia intestinalis.
Where [30] appears, read: source organism: SARS coronavirus Tor2.
Where [31] appears, read: source organism: Mammarenavirus whitewaterense.

In the case of SINDPRWGR, the dissociation constant (Kd) was not below 20000 nM in experiment [1] (setting [24]) and 27.4 nM in experiment [2] (setting [24]).
TVIFQTVVI: in experiment [3], the Kd came out at 569 nM.
Still for that read-out and setting: as for MTMKMMVHI, the figure is 4.75 nM.
Take ETPQGLAKI: the dissociation constant (Kd) in [4] (source organism: West Nile virus) was determined as 5560 nM.
Consider YSDIPRLKK, for which the dissociation constant Kd was 412 nM in experiment [5] (setting [25]); 372 nM in [1] (setting [25]); 1640 nM in experiment [6] (setting [25]); 767 nM in experiment [2] (setting [25]); 92.7 nM in experiment [7] (setting [25]).
TLFPGDDDL: the equilibrium dissociation constant (Kd) in experiment [8] (source organism: Vaccinia virus WR) is 394 nM.
Regarding QLFKPLTKK, the Kd in [2] (source organism: SARS-CoV1) was 980 nM; in experiment [9] it was not below 77700 nM; in experiment [10], 16800 nM.
Regarding AAAAPYAGW, the Kd in [11] is 27.1 nM.
For the sequence ATDFKFAMY, the Kd in [1] (source organism: Homo sapiens) came out at 7810 nM; in experiment [12] (source organism: Homo sapiens) it was 4100 nM; in [6] (source organism: Homo sapiens), 135 nM; in experiment [7] (source organism: Homo sapiens), 2400 nM.
FKWGKKIIL displayed a dissociation constant (Kd) in [13] (source organism: Bacillus anthracis str. A0488) of 12.6 nM.
Consider QWFLDLPLPW, for which the Kd is 115 nM in experiment [14] (setting [26]), 2780 nM in [15] (setting [26]) and 11.7 nM in [16] (setting [26]).
In [8] (source organism: Campylobacter jejuni subsp. jejuni NCTC 11168 = ATCC 700819), NMKWKFNAL had a Kd not below 20000 nM.
In the case of SEIPNLDIIG, the equilibrium dissociation constant (Kd) in [15] (setting [26]) worked out at 1090 nM.
Take LPRWPPPQL: the Kd worked out at 5500 nM in experiment [5] (source organism: Homo sapiens) and 164 nM in experiment [17].
Turning to TEAKMLLDNI, the dissociation constant Kd in experiment [15] (source organism: Dengue virus 1 Brazil/97-11/1997) was determined as 617 nM.
QTDPLWQKY returned an equilibrium dissociation constant (Kd) in [4] (source organism: Vibrio vulnificus CMCP6) of 2780 nM.
In the case of ILNDEQLNL, the Kd in experiment [8] (source organism: Vaccinia virus Tian Tan) was determined as 0.7 nM.
Regarding ALMEITSRY, the Kd is 11700 nM in [5] (setting [27]); 259 nM in experiment [1] (setting [27]); 90.5 nM in experiment [12] (setting [27]); 1040 nM in [6] (setting [27]); 5280 nM in experiment [2] (setting [27]); 605 nM in [7] (setting [27]). The sequence further came in with a Kd in [18] of 4810 nM.
Consider ENARLRALL, for which the Kd in [13] (source organism: Escherichia coli) was 824 nM.
On to GVWTRDGNR, for which the figures for the Kd in experiment [1] (setting [28]) and in [2] (setting [28]) were not below 20000 nM and 59 nM, respectively.
On to SLRPNDIVY, for which the Kd in experiment [1] (setting [29]) was 13600 nM; in experiment [12] (setting [29]), 150 nM; in [7] (setting [29]) it was 7040 nM.
Regarding ARLFGIRAK, the dissociation constant (Kd) was found to be 1240 nM in [1] (source organism: Homo sapiens), 1040 nM in experiment [19], 2940 nM in experiment [2] (source organism: Homo sapiens) and 4240 nM in experiment [7] (source organism: Homo sapiens).
As for SWFITQRNF, the equilibrium dissociation constant (Kd) in experiment [20] (setting [30]) was not below 77900 nM; in experiment [14] (setting [30]) it was not below 40000 nM; in experiment [21] (setting [30]) it was 0.215 nM; in [16] (setting [30]) it was 3900 nM; in experiment [22] (setting [30]), not below 78100 nM; in experiment [23] (setting [30]), 16.2 nM.
As to DHHFTPQII, the equilibrium dissociation constant (Kd) in experiment [20] (setting [31]) is not below 77900 nM; in [14] (setting [31]), not below 43900 nM; in experiment [21] (setting [31]), not below 50800 nM; in [16] (setting [31]) it was 11200 nM; in experiment [22] (setting [31]), 61.5 nM; in experiment [23] (setting [31]) it was 2970 nM.

The term Kd denotes the concentration at which binding is half-saturated.
